Experimental data: the supplement of paper PMC10065799, “High-throughput profiling of sequence recognition by tyrosine kinases and SH2 domains using bacterial peptide display” (eLife, 2023)

Key:
[1] = tested on: AncSZ; assay: phosphorylation enrichment, bacterial display (enrichment ratio); higher = better substrate or ligand; peptides without Tyr show the background
[2] = target: EPHB1 (UniProt P54762); assay: as above
[3] = target: EPHB2 (UniProt P29323); assay: as above
[4] = target: FGFR1 (UniProt P11362); assay: as above
[5] = target: FGFR3 (UniProt P22607); assay: as above
[6] = tested on: Fer (mouse); assay: as above
[7] = target: Fes (UniProt P07332); assay: as above
Chain of Fes (P07332 whole entry, looked up): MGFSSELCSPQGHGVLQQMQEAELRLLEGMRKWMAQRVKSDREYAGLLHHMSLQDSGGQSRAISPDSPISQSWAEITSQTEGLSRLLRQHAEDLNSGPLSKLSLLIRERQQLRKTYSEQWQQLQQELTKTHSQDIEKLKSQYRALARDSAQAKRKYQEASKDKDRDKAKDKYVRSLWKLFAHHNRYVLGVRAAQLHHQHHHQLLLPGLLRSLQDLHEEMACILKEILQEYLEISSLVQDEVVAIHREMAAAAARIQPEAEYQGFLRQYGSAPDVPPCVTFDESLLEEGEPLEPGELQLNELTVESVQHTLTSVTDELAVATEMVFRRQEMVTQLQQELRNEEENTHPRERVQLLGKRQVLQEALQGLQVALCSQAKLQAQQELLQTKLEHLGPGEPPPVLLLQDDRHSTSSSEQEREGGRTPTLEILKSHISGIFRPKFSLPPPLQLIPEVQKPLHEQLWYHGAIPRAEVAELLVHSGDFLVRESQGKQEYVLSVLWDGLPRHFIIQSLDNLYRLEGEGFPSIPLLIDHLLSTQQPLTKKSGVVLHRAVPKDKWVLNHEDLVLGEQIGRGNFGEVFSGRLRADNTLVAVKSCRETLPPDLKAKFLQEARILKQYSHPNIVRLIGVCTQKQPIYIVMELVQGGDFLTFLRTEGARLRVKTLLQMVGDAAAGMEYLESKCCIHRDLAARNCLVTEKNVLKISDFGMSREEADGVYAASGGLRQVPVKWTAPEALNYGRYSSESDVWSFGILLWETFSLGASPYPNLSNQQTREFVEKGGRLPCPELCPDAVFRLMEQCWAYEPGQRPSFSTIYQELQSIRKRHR

[8] = target: Fyn (UniProt P06241); assay: as above
Chain of Fyn (P06241 whole entry, looked up): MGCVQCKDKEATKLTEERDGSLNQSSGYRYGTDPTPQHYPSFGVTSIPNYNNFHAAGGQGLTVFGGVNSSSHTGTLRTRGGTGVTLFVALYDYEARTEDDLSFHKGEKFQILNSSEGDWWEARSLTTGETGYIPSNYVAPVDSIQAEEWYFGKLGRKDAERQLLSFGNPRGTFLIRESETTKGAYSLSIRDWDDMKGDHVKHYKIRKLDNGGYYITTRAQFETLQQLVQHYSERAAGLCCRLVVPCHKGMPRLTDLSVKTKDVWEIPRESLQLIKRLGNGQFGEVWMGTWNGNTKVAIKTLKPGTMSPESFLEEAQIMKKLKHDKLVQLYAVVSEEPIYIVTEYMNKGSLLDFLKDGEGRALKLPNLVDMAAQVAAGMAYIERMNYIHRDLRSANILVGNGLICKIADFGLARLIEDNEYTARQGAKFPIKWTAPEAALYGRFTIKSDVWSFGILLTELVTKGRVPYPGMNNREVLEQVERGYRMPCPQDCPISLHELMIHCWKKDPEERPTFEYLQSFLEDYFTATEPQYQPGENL

[9] = target: Hck (UniProt P08631); assay: as above
Chain of Hck (P08631 whole entry, looked up): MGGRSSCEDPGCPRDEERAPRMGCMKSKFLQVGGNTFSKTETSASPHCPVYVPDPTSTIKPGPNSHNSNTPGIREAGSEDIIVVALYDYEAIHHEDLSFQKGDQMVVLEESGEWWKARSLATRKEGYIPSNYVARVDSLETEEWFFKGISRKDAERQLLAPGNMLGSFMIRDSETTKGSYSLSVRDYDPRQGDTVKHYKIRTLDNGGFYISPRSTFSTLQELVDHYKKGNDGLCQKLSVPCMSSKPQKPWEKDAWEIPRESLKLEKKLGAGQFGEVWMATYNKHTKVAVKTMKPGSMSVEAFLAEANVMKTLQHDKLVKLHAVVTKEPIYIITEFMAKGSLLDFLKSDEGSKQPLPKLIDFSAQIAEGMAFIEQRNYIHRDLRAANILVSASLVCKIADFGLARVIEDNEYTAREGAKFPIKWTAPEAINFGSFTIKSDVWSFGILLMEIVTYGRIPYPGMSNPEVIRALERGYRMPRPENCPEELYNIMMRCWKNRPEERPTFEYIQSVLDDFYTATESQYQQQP

[10] = target: Jak2 (UniProt O60674); assay: as above
Chain of Jak2 (O60674 whole entry, looked up): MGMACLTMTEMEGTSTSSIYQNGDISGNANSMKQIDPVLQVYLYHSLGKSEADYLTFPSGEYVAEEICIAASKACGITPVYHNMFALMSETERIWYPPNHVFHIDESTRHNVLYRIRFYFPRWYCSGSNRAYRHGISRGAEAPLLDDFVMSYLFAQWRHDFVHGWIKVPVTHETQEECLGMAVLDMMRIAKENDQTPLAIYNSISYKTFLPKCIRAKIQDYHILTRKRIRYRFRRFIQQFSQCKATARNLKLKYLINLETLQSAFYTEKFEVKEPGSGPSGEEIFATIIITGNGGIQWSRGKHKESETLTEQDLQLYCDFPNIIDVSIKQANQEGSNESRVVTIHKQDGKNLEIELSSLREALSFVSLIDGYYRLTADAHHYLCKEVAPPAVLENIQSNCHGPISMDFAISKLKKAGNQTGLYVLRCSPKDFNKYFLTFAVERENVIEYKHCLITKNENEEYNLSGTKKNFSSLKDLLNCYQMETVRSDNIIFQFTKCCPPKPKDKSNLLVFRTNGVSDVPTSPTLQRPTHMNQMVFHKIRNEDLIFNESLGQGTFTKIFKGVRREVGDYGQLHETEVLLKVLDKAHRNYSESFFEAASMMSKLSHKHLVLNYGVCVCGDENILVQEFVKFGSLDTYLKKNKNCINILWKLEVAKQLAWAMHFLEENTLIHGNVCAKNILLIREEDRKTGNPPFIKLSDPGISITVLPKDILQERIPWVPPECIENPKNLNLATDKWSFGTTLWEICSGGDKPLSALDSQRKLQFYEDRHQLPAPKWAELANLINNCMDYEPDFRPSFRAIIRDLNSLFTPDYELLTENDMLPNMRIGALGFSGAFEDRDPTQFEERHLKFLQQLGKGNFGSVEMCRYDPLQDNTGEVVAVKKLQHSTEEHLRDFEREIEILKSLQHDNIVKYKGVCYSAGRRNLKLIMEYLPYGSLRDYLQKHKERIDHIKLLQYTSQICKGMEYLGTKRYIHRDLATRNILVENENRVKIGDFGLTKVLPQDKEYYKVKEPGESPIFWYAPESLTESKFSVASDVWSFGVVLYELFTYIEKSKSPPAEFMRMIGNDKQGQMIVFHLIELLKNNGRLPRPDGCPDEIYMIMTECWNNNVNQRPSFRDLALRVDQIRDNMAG

[11] = target: MERTK (UniProt Q12866); assay: as above
Chain of MERTK (Q12866 whole entry, looked up): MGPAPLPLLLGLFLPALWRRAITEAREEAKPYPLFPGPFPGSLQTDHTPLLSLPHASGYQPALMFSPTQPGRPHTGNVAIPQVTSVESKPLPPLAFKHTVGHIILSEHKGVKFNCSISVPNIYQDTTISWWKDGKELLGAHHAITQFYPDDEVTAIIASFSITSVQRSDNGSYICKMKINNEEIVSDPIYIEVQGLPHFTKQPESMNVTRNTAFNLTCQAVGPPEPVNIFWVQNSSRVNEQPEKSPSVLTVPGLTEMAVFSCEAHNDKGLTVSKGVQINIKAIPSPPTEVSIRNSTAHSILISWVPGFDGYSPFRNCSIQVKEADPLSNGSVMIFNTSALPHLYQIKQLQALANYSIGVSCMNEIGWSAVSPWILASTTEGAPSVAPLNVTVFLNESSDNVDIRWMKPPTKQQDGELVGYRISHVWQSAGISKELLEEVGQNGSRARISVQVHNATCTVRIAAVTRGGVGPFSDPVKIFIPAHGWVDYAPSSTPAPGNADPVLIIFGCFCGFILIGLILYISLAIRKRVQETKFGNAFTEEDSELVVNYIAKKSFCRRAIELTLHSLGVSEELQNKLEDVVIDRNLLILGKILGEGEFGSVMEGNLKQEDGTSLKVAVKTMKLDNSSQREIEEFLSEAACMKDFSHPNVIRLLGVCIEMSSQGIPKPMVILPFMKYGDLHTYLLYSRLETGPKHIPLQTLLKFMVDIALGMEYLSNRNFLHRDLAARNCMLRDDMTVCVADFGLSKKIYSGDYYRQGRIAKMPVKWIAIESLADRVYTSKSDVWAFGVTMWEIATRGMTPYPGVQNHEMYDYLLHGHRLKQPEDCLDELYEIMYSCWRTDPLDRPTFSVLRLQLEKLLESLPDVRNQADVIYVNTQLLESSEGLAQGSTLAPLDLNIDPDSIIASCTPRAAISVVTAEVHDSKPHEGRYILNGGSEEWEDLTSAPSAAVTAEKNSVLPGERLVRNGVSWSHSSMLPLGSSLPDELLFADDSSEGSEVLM

[12] = tested on: c-Abl (mouse); assay: as above
[13] = tested on: c-Src; assay: as above
[14] = target: Grb2 SH2 (UniProt P62993); assay: SH2 binding enrichment of the phosphorylated peptide, bacterial display (enrichment ratio); higher = better substrate or ligand; peptides without Tyr show the background
[15] = target: SHP2-C SH2; assay: as above
[16] = target: c-Src SH2; assay: as above
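Wherever SH2 binding enrichment of the phosphorylated peptide, bacterial display is given: peptide library displayed on the E. coli surface as eCPX fusions, selected cells deep-sequenced, score is each peptide's frequency after selection divided by its frequency in the input.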
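Wherever phosphorylation enrichment, bacterial display is given: 11-residue human phosphosite peptides and single-mutation variants displayed on the E. coli surface, counted by deep sequencing, each peptide's frequency after selection divided by its frequency in the unselected input library; frequency after pTyr selection over input frequency; kinase dosed for 20-30% of maximal phosphorylation in three min.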

Chain of EPHB1 (P54762 whole entry, looked up): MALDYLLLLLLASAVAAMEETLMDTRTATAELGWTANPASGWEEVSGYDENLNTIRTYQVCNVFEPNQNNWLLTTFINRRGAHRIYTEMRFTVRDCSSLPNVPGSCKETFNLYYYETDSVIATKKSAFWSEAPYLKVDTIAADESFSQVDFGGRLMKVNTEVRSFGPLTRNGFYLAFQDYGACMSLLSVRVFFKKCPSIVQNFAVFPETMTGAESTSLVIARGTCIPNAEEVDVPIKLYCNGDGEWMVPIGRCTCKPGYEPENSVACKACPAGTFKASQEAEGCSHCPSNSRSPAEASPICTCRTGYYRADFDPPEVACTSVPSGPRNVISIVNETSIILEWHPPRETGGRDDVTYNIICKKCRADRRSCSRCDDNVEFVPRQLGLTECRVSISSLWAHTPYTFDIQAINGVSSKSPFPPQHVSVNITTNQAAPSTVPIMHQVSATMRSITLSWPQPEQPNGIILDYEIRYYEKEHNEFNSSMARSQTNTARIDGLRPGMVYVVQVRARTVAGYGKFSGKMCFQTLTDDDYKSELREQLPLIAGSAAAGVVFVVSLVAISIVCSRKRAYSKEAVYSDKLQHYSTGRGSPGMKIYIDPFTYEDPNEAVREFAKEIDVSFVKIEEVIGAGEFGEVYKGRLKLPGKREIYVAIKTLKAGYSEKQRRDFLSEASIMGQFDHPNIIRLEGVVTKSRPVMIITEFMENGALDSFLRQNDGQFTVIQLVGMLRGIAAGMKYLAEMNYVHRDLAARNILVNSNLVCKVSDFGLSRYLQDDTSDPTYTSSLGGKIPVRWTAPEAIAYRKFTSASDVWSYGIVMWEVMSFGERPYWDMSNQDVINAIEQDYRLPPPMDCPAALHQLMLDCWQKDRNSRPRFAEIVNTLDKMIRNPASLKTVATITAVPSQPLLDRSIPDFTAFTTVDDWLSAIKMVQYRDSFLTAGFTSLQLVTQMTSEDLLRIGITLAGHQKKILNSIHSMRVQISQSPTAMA

Row | Sequence | SH2 binding enrichment [14] | SH2 binding enrichment [15] | SH2 binding enrichment [16] | phosphorylation enrichment [1] | phosphorylation enrichment [2] | phosphorylation enrichment [3] | phosphorylation enrichment [4] | phosphorylation enrichment [5] | phosphorylation enrichment [6] | phosphorylation enrichment [7] | phosphorylation enrichment [8] | phosphorylation enrichment [9] | phosphorylation enrichment [10] | phosphorylation enrichment [11] | phosphorylation enrichment [12] | phosphorylation enrichment [13]
1 | VTDGKYAFKPK [GTF2E2_Y137_I133T] | 0.783 | 0.847 | 0.452 | 0.491 | 0.299 | 0.262 | 0.411 | 0.419 | 0.31 | 0.64 | 0.355 | 0.459 | 0.521 | 0.361 | 0.575 | 0.361
2 | VVLEDYLDIKN [CLCNKB_Y138] | 0.747 | 0.786 | 0.497 | 1.02 | 0.499 | 0.671 | 0.668 | 0.608 | 0.391 | 1.2 | 0.534 | 0.434 | 1.07 | 0.464 | 0.576 | 0.421
3 | VYYDLYGGEKF [PTPN11_Y66_D61V] | 1.34 | 1.06 | 2.26 | 2.05 | 4.34 | 7.34 | 15 | 12.8 | 2.99 | 1.13 | 5.88 | 6.07 | 2.2 | 8.55 | 0.918 | 5.53
4 | WCKPPYFSCAV [MMS22L_Y28] | 1.29 | 1.18 | 1.34 | 1.06 | 0.506 | 0.562 | 0.512 | 0.656 | 0.474 | 0.908 | 0.459 | 0.432 | 0.845 | 0.418 | 0.656 | 0.459
5 | WEPFGYAVTRC [PTPRT_Y412] | 0.683 | 0.589 | 0.685 | 0.947 | 0.591 | 0.567 | 0.547 | 0.707 | 0.458 | 0.999 | 0.402 | 0.479 | 0.915 | 0.345 | 0.673 | 0.382
6 | WGTPEYDSVVA [MAP1A_Y1883_A1881P] | 0.829 | 0.612 | 0.864 | 1.42 | 0.495 | 0.493 | 0.46 | 0.593 | 2.73 | 1.15 | 0.566 | 0.76 | 0.895 | 0.359 | 0.723 | 0.59
7 | WRVISYHVVVW [ATP13A2_Y50_G49S] | 1.08 | 0.994 | 0.619 | 1.2 | 0.582 | 0.61 | 0.554 | 0.826 | 0.547 | 1.47 | 0.453 | 0.544 | 1.26 | 0.434 | 1.03 | 0.63
8 | WVFNHYRCIIW [BRCA2_Y2624_W2626C_YF] | 0.82 | 0.755 | 0.588 | 1.28 | 0.885 | 0.644 | 0.498 | 0.956 | 0.589 | 1.67 | 0.482 | 0.574 | 1.41 | 0.538 | 1.04 | 0.497
9 | YADGVYLALEE [DUOX2_Y70_Q71L] | 0.83 | 0.679 | 0.869 | 1.66 | 1.82 | 1.28 | 1.12 | 1.18 | 0.531 | 1.31 | 2.28 | 1.59 | 1.39 | 1.13 | 0.899 | 2.97
10 | YGPPQYNMQYS [ERBB2IP_Y977_I979M] | 0.849 | 0.661 | 0.434 | 0.794 | 0.472 | 0.426 | 0.442 | 0.448 | 0.499 | 0.577 | 0.547 | 0.746 | 0.496 | 0.478 | 0.481 | 0.499
11 | YLQEIHNSNNQ [FGG_Y140_Y140H] | 0.802 | 0.871 | 0.578 | 0.618 | 0.427 | 0.431 | 0.404 | 0.63 | 0.349 | 0.63 | 0.431 | 0.432 | 0.563 | 0.484 | 0.445 | 0.414
12 | YPQARYHWLVL [APTX_Y214_K211Q] | 1.27 | 1.43 | 0.98 | 0.937 | 0.72 | 0.586 | 1.96 | 1.48 | 0.612 | 1.14 | 0.449 | 0.531 | 0.98 | 1.05 | 0.744 | 0.411
13 | YRGYSYDDIPD [TMEM230_Y112] | 1.15 | 0.893 | 13.6 | 0.973 | 0.483 | 0.485 | 0.531 | 0.662 | 0.439 | 0.964 | 0.442 | 0.51 | 0.973 | 0.393 | 0.762 | 0.463
14 | YSSLGYPPPEG [ZSWIM4_Y87] | 1.04 | 16.1 | 3.02 | 0.741 | 0.511 | 0.508 | 1.06 | 0.821 | 0.67 | 0.793 | 2.36 | 1.66 | 0.568 | 7.49 | 0.66 | 1.22

Continued, in another order:

Row | SH2 binding enrichment [14] | SH2 binding enrichment [15] | SH2 binding enrichment [16] | Sequence | phosphorylation enrichment [1] | phosphorylation enrichment [2] | phosphorylation enrichment [3] | phosphorylation enrichment [4] | phosphorylation enrichment [5] | phosphorylation enrichment [6] | phosphorylation enrichment [7] | phosphorylation enrichment [8] | phosphorylation enrichment [9] | phosphorylation enrichment [10] | phosphorylation enrichment [11] | phosphorylation enrichment [12] | phosphorylation enrichment [13]
15 | 0.96 | 0.635 | 1.09 | VVEFGYEFFAK [PPP1CB_Y254_D252Y_YF] | 1.52 | 0.583 | 0.52 | 0.558 | 0.829 | 0.553 | 1.26 | 0.573 | 0.559 | 1.41 | 0.488 | 0.965 | 0.503
16 | 0.724 | 0.863 | 1.17 | VVLGSYDRLRV [IFT172_Y260] | 0.584 | 0.442 | 0.451 | 0.45 | 0.582 | 0.45 | 0.75 | 0.404 | 1.11 | 0.546 | 0.341 | 0.452 | 0.405
17 | 1.11 | 1.23 | 0.652 | VVQGIYGYHHH [UFSP2_Y285_Y290H] | 0.67 | 0.857 | 2.92 | 0.541 | 0.488 | 13.8 | 0.758 | 11.2 | 10.7 | 0.555 | 10.3 | 5.2 | 9.1
18 | 0.999 | 0.984 | 0.685 | VVTFSYKPAGN [RBL2_Y544_P547A] | 0.754 | 0.418 | 0.424 | 0.399 | 0.705 | 0.378 | 0.83 | 0.395 | 0.378 | 0.643 | 0.367 | 0.605 | 0.397
19 | 0.699 | 0.555 | 0.506 | VYAANYYKLLG [ROR2_Y645_D644N] | 0.779 | 3.1 | 2.04 | 7.46 | 5.33 | 0.469 | 1.11 | 1.28 | 1.76 | 3.19 | 5.56 | 1.23 | 1.18
20 | 1.29 | 1.09 | 0.565 | WAMLAYNRSKL [WWOX_Y293] | 1.25 | 0.453 | 0.417 | 0.431 | 0.611 | 0.525 | 1.04 | 0.347 | 0.435 | 1.02 | 0.37 | 0.541 | 0.266
21 | 0.684 | 0.618 | 0.444 | WFISFYPQVIM [CTNS_Y143_S139F] | 1.22 | 0.541 | 0.637 | 0.485 | 0.838 | 0.451 | 1.53 | 0.413 | 0.446 | 1.13 | 0.315 | 0.758 | 0.359
22 | 1.06 | 0.639 | 0.512 | WFKKFYDANFD [MAPRE2_Y158_YF] | 0.998 | 0.501 | 0.374 | 0.378 | 0.6 | 0.373 | 1.28 | 0.37 | 0.421 | 0.85 | 0.399 | 0.537 | 0.368
23 | 0.701 | 0.638 | 0.512 | WHHIFYNELRV [ACTG1_Y91_T89I] | 1.14 | 0.663 | 0.725 | 0.527 | 0.911 | 0.536 | 1.33 | 0.388 | 0.569 | 1.13 | 0.444 | 0.805 | 0.407
24 | 0.992 | 0.779 | 0.572 | WHYTFYNELRV [ACTC1_Y93_H90Y] | 1.39 | 1.31 | 0.678 | 0.686 | 1.03 | 0.651 | 1.42 | 0.461 | 0.67 | 1.27 | 0.869 | 0.979 | 0.619
25 | 0.746 | 0.488 | 0.435 | WRPFGYPCRRR [BCS1L_Y181_R183C] | 0.622 | 0.422 | 0.435 | 0.496 | 0.462 | 0.458 | 0.643 | 0.442 | 0.457 | 0.394 | 0.509 | 0.544 | 0.517
26 | 0.726 | 0.75 | 1.48 | YEEDSYVERSQ [RET_Y905_K907E] | 1.27 | 0.667 | 0.722 | 0.558 | 0.961 | 0.572 | 1.31 | 0.519 | 0.498 | 1.06 | 0.504 | 0.668 | 0.41
27 | 37.5 | 1.22 | 9.41 | YENGEYIIRQG [PRKG1_Y247] | 1.11 | 0.552 | 0.555 | 0.432 | 0.611 | 0.418 | 1.04 | 0.453 | 0.589 | 0.913 | 0.386 | 0.66 | 0.542
28 | 0.866 | 0.827 | 1.01 | YGAHNYHPLPV [OAT_Y55] | 0.61 | 1.24 | 1.53 | 9.73 | 5.68 | 1.06 | 0.728 | 0.599 | 1.28 | 0.642 | 2.37 | 0.675 | 0.632
29 | 0.48 | 0.917 | 0.514 | YIRRDYEACKA [BBS4_Y48_K46R] | 0.765 | 0.897 | 0.685 | 0.633 | 0.578 | 0.426 | 0.807 | 0.572 | 0.509 | 0.75 | 0.435 | 0.64 | 0.706
30 | 9.88 | 1.1 | 8.81 | YQLPYYNTVPS [BMPR1A_Y458_M460T] | 2 | 0.642 | 0.799 | 5.46 | 3.69 | 2.1 | 0.684 | 0.92 | 1.46 | 4.98 | 5.81 | 2.34 | 3.46
